Experimental data taken from PMC7340788, “Structure of the yeast Swi/Snf complex in a nucleosome free state” (Nature Communications, 2020).

B1: Swi1 (natural protein, S. cerevisiae, UniProt P09547 1-1314, looked up)
chain: MDFFNLNNNNNNNNTTTTTTTTNNNNTNNNNTNNNNNPANNTNNNNSTGHSSNTNNNTNNNNTNTGASGVDDFQNFFDPKPFDQNLDSNNNNSNSNNNDNNNSNTVASSTNFTSPTAVVNNAAPANVTGGKAANFIQNQSPQFNSPYDSNNSNTNLNSLSPQAILAKNSIIDSSNLPLQAQQQLYGGNNNNNSTGIANDNVITPHFITNVQSISQNSSSSTPNTNSNSTPNANQQFLPFNNSASNNGNLTSNQLISNYAASNSMDRSSSASNEFVPNTSDNNNNSNNHNMRNNSNNKTSNNNNVTAVPAATPANTNNSTSNANTVFSERAAMFAALQQKQQQRFQALQQQQQQQQNQQQQNQQPQQQQQQQQNPKFLQSQRQQQQRSILQSLNPALQEKISTELNNKQYELFMKSLIENCKKRNMPLQSIPEIGNRKINLFYLYMLVQKFGGADQVTRTQQWSMVAQRLQISDYQQLESIYFRILLPYERHMISQEGIKETQAKRIFLQQFLQELLKKVQQQQQAAALANANNNINSASSAPTPAAPGASVPATAAPGTEAGIVPVSANTPKSLNSNININVNNNNIGQQQVKKPRKQRVKKKTKKELELERKEREDFQKRQQKLLEDQQRQQKLLLETKLRQQYEIELKKLPKVYKRSIVRNYKPLINRLKHYNGYDINYISKIGEKIDSNKPIFLFAPELGAINLHALSMSLQSKNLGEINTALNTLLVTSADSNLKISLVKYPELLDSLAILGMNLLSNLSQNVVPYHRNTSDYYYEDAGSNQYYVTQHDKMVDKIFEKVNNNATLTPNDSNDEKVTILVDSLTGNQLPTPTPTEMEPDLDTECFISMQSTSPAVKQWDLLPEPIRFLPNQFPLKIHRTPYLTSLKKIKDEIDDPFTKINTRGAEDPKVLINDQLSTISMILRNISFSDNNSRIMSRNFYLKRFISDLLWLVLIHPENFTCNRKILNFKKDLVIVLSNISHLLEIASSIDCLLILILVISFGQPKLNPMASSSSFGSESLTFNEFQLQWGKYQTFGVDILAKLFSLEKPNLNYFKSILLNKNTGNNLYDRNSNNNHKDKKLLRRLLNLYNDNNKNNNNRHNLLNDVVSFLFSAIPLQQVLSQSADPSLLIDQFSPVISQSLTSILVIVQKILPLSNEVFEISENNSDSNSNNNGNKDSSFNFNKNLPFVWLSSEENIGSGLLKLSEIILNINNSTSKNTLLQQQNYSKVLLPSINISCVQLIKCLVEKSICFENCLNNDPEILKKIASIPNLFPTDLEIFQLFTNPSVDIQIINQYQLLYNLKNDILTNLE
notes: Swi1, subunit of the S. cerevisiae Swi/Snf complex; endogenous protein; Only part of the chain is modelled (C-terminus with seven ARM repeats, α1, β1); For cryo-EM the complex was cross-linked with 1 mM BS3; source: endogenous, S. cerevisiae; purified as part of the Swi/Snf complex through Snf6-3Flag (ANTI-FLAG M2 resin, Superose 6)

How the values were obtained:
Assay in all cases: cryo-EM structure; endogenous Swi/Snf complex purified as a whole through Snf6-3Flag, nucleosome-free, cross-linked with 1 mM BS3, 20 mM HEPES pH 7.4, 350 mM NaCl; 4.1 Å average, 2.9 Å for the base module
Conditions in all cases: both partners purified
Swi1 = target: B1
Swi3 = target: T1, Swi3 (S. cerevisiae, UniProt P32591 1-825)
T1 construct: Swi3, subunit of the S. cerevisiae Swi/Snf complex; endogenous protein; two copies (chains A and B) in the model; also called Swi3A; Swi3B; source: endogenous, S. cerevisiae; purified as part of the Swi/Snf complex through Snf6-3Flag (ANTI-FLAG M2 resin, Superose 6)
T1 sequence (looked up): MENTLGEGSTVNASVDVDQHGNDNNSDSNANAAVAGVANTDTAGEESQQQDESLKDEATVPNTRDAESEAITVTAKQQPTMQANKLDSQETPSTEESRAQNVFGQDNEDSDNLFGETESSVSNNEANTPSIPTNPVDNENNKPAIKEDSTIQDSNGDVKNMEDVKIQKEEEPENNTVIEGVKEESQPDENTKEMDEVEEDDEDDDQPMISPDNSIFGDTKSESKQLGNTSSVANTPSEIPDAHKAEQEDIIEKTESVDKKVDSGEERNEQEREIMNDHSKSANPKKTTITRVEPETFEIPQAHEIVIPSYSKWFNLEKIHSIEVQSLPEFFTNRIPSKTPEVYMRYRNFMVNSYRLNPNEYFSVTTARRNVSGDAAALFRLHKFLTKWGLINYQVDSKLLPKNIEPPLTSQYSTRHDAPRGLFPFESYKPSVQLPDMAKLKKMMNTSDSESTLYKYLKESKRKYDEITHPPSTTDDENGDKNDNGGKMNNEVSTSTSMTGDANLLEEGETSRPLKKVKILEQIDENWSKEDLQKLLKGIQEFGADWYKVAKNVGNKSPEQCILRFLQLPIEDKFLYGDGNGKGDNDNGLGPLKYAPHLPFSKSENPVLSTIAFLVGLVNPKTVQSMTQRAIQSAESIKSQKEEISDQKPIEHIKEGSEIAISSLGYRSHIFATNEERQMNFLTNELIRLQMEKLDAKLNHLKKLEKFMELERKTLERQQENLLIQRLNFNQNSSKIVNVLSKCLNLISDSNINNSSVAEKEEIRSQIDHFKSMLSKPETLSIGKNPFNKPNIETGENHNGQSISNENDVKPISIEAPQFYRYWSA

Snf2 = target: T2, Snf2 (S. cerevisiae, UniProt P22082 1-1703)
T2 construct: Snf2, ATPase-containing subunit of the S. cerevisiae Swi/Snf complex; endogenous protein; Only the preHSA domain and the HSA helix are seen in the map; the ATPase domain is absent from the structure; For cryo-EM the complex was cross-linked with 1 mM BS3; source: endogenous, S. cerevisiae; purified as part of the Swi/Snf complex through Snf6-3Flag (ANTI-FLAG M2 resin, Superose 6)
T2 sequence (P22082 whole entry, the tested form may be a part): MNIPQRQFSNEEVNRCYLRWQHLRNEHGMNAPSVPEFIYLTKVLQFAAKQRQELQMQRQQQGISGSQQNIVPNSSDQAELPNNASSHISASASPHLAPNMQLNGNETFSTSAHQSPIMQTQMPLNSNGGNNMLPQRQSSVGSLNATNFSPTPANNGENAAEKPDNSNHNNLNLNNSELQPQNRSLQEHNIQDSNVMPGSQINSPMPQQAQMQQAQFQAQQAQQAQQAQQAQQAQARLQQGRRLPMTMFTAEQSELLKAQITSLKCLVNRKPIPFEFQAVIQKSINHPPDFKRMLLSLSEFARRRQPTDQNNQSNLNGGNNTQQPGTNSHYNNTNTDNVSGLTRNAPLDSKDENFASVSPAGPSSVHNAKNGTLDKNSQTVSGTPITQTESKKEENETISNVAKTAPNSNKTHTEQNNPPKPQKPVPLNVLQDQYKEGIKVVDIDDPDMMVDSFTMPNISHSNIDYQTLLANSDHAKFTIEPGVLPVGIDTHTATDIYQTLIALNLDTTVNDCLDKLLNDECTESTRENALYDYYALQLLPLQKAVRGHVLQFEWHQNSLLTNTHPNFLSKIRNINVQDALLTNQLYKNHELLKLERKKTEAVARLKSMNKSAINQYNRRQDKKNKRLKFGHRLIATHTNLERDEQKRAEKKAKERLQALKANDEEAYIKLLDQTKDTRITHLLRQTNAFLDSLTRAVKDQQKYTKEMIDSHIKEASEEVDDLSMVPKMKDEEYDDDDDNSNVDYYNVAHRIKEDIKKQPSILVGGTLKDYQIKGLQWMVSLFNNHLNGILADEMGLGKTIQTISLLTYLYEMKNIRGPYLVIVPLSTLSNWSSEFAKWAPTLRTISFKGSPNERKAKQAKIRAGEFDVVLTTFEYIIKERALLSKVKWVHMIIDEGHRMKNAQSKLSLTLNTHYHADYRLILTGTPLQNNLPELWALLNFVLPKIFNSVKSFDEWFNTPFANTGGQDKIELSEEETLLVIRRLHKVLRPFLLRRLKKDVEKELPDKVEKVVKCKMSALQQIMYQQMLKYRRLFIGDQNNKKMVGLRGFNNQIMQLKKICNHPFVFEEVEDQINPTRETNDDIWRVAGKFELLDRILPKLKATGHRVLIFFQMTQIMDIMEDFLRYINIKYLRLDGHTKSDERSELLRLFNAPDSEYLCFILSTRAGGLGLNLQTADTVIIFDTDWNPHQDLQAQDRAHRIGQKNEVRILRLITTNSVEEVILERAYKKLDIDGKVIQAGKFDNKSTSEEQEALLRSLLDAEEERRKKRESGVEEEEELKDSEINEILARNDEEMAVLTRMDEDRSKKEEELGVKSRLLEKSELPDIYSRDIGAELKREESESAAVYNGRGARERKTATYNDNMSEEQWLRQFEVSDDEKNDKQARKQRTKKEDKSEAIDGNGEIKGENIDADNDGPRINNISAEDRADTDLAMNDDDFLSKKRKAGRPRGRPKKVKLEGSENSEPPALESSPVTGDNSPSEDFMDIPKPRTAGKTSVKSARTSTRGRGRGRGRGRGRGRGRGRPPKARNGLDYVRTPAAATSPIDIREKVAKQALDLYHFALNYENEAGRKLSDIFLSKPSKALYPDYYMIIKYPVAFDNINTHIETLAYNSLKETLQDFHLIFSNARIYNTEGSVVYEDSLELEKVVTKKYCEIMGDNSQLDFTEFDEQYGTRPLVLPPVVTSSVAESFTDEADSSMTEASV

Row | Binder | binding result (Swi1) | binding result (Swi3) | binding result (Snf2)
1 | Snf12 (natural protein, S. cerevisiae, UniProt P53628 1-566, looked up, Snf12, subunit of the S. cerevisiae Swi/Snf complex; endogenous protein; Part of the SWIB domain was homology modelled; For cryo-EM the complex was cross-linked with 1 mM BS3; source: endogenous, S. cerevisiae; purified as part of the Swi/Snf complex through Snf6-3Flag (ANTI-FLAG M2 resin, Superose 6)) MSKVMKPSNGKGSRKSSKAATPDTKNFFHAKKKDPVNQDKANNASQITPTVPHSHPSDMVIPDHLAELIPELYSFQQLVDSEKRLDHFIHLRNLHMKRMVAQWERSKLSQEFLYPHLNFPNVKFLRIFISNVSENQPWQMDTNNEADLMALENATWTMRIEGRLLDNVQANDPAREKFSSFIESIVVDFKNKENDNVPSTKFNAAPEENATEGPSDKKLNLNLPLQFSLPNGDNSTTTNTDQNNATMGEETAKKDMSSTTPKLESVKWQYDPNNPVDFDGLDIKRVGSENVECTISILRKSSPEEPFMSYSPQLTAIIGLKSGTSHDAIFSIYKYIHLNELLTNDESAFENLMGNRNNHNSNTSTSKMLDAASSQVSIVKLDTQLITLLPSSLKESSPDTMKLTDLLSLINSTHLLPLQPIEIDYTVRVDKASTYGELVLDIEVPDVNALKFNNTQRESQIGAAELNENARELEQIKPKIALQDKEITSVLSNLHESNKRYRFFKKISEDPVKALNECIASTSNALKVLSGDEGYNEDMVRRANFYKENEAMLRENIEVILSNGRM | binds | binds | binds
2 | Snf5 (natural protein, S. cerevisiae, UniProt P18480 1-905, looked up, Snf5, subunit of the S. cerevisiae Swi/Snf complex; endogenous protein; For cryo-EM the complex was cross-linked with 1 mM BS3; source: endogenous, S. cerevisiae; purified as part of the Swi/Snf complex through Snf6-3Flag (ANTI-FLAG M2 resin, Superose 6)) MNNQPQGTNSVPNSIGNIFSNIGTPSFNMAQIPQQLYQSLTPQQLQMIQQRHQQLLRSRLQQQQQQQQQTSPPPQTHQSPPPPPQQSQPIANQSATSTPPPPPAPHNLHPQIGQVPLAPAPINLPPQIAQLPLATQQQVLNKLRQQAIAKNNPQVVNAITVAQQQVQRQIEQQKGQQTAQTQLEQQRQLLVQQQQQQQLRNQIQRQQQQQFRHHVQIQQQQQKQQQQQQQHQQQQQQQQQQQQQQQQQQQQQQQQQQQQQQQQQQQQQGQIPQSQQVPQVRSMSGQPPTNVQPTIGQLPQLPKLNLPKYQTIQYDPPETKLPYPTYWSDKKADTDTLLYEQIIQRDKINKYSLIRETNGYDPFSIYGFSNKEYISRLWHTLKYYQDLKNTRMKSITSTSQKIPSASIWGNGYSGYGNGITNTTTRVIPQVEVGNRKHYLEDKLKVYKQAMNETSEQLVPIRLEFDQDRDRFFLRDTLLWNKNDKLIKIEDFVDDMLRDYRFEDATREQHIDTICQSIQEQIQEFQGNPYIELNQDRLGGDDLRIRIKLDIVVGQNQLIDQFEWDISNSDNCPEEFAESMCQELELPGEFVTAIAHSIREQVHMYHKSLALLGYNFDGSAIEDDDIRSRMLPTITLDDVYRPAAESKIFTPNLLQISAAELERLDKDKDRDTRRKRRQGRSNRRGMLALSGTSASNTSMNGVHNTVAAGNASSLPPGEILLPDIADIPRTFRTPVPSTLMPGGVDVGPSVESYELRNTTTYKSRPDRPKPVSPPCYIIDHIPGHSLLLSIKLPGKVNTKEEFAAAPNDTSSGTNAMLPSPESLKTKLNSNIRAGVTIPSIPNPIANHTVTNSPNPTLQPVIPGGAASKSVPTPSLPIAPPVAPHDSEATLLTNSNNGSSNNNTQNT | binds | – | binds
3 | Snf6 with a C-terminal 3-Flag tag (natural protein, S. cerevisiae, UniProt P18888 1-332, looked up, Snf6, subunit of the S. cerevisiae Swi/Snf complex; expressed from its own locus; Bait of the purification; For cryo-EM the complex was cross-linked with 1 mM BS3; source: endogenous locus tagged by homologous recombination, S. cerevisiae; purified (ANTI-FLAG M2 resin, FLAG peptide elution, Superose 6); not shown: 3-Flag, C-terminal, kept) MGVIKKKRSHHGKASRQQYYSGVQVGGVGSMGAINNNIPSLTSFAEENNYQYGYSGSSAGMNGRSLTYAQQQLNKQRQDFERVRLRPEQLSNIIHDESDTISFRSNLLKNFISSNDAFNMLSLTTVPCDRIEKSRLFSEKTIRYLMQKQHEMKTQAAELQEKPLTPLKYTKLIAAAEDGSRSTKDMIDAVFEQDSHLRYQPDGVVVHRDDPALVGKLRGDLREAPADYWTHAYRDVLAQYHEAKERIRQKEVTAGEAQDEASLQQQQQQDLQQQQQVVTTVASQSPHATATEKEPVPAVVDDPLENMFGDYSNEPFNTNFDDEFGDLDAVFF | binds | – | binds
4 | B1 | – | – | binds
